Test results as given in article PMC6701862 (Science (New York, N.Y.), 2019).

Target: GluA2 subunit of native AMPA receptors (nAMPAR) from rat brain (rat (endogenous in rat brain), UniProt P19491)
Assay: cryo-EM structure

Chain of GluA2 subunit of native AMPA receptors (nAMPAR) from rat brain (P19491 22-883): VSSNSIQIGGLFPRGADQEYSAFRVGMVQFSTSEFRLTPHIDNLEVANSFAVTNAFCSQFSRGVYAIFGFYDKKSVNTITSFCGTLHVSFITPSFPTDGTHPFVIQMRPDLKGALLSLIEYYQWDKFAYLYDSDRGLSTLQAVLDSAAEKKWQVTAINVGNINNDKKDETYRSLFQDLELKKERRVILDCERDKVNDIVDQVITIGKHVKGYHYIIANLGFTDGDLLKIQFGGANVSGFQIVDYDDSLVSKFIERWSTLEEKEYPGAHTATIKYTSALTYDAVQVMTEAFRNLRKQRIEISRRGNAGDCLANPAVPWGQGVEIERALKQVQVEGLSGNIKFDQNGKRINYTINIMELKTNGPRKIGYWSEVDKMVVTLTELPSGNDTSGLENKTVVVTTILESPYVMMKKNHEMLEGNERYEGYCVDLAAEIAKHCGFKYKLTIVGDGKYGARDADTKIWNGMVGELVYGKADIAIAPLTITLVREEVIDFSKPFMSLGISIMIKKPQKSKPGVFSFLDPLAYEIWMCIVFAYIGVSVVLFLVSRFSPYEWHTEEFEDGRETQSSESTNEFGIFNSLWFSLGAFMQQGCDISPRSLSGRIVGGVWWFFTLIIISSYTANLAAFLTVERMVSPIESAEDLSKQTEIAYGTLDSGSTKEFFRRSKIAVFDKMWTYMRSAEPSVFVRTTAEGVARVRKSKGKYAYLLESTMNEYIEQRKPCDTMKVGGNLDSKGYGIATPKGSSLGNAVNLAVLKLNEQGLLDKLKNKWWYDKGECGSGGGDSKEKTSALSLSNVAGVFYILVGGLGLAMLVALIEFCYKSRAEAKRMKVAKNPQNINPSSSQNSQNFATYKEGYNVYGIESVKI

binding result: binds
B1: 15F1 Fab, anti-GluA2 (Fab, V domains shown)
VH: QAQLKESGPGLVAPSQSLSITCTVSGFSLTNYGVHWVRQPPGKGLEWLGVIWAGGSTNYNSALMSRVSISKDNSKSQVFLKMNSLQTDDTVMYYCAREDYDYDWHFDVWGAGTTVTVSS
VL: EIQMTQTTSSLSASLGDRVTISCRASQDISNYLSWYQQKPDGTVKLLIYYTSRLHSGVPSRFSGSGSGIDYSLTINNLEQEDFATYFCQQGNTLPLTFGAGTKLELK
